# Source: patent US20120316071A1
# Key:
# [1] = molecular target: rHuman EGF R/Fc Chimera, CF (R&D Systems Cat#344-ER) (human) (UniProt P00533); experiment: MSD Multispot ECL, antigen spotted on plate, Fab 14.375 nM; blank spot 738
# [2] = molecular target: rHuman EGF R/Fc Chimera, CF (R&D Systems Cat#344-ER) (human) (UniProt P00533); experiment: MSD Multispot ECL, antigen spotted on plate, Fab 230 nM; blank spot 1656
# [3] = molecular target: rHuman EGF R/Fc Chimera, CF (R&D Systems Cat#344-ER) (human) (UniProt P00533); experiment: MSD Multispot ECL, antigen spotted on plate, Fab 920 nM; blank spot 4082
# [4] = molecular target: rHuman EGF R/Fc Chimera, CF (R&D Systems Cat#344-ER) (human) (UniProt P00533); experiment: MSD Multispot ECL, antigen spotted on plate, Fab 57.5 nM; blank spot 954
# [5] = molecular target: rHuman Notch-1/Fc Chimera, CF (R&D Systems Cat#3647-TK) (human) (UniProt P46531); experiment: Multispot ECL (MSD), antigen spotted on plate, Fab 70 nM; blank spot 635
# [6] = molecular target: rHuman IGF-1 sR, (IGF-1 sR), CF (R&D Systems Cat#391-GR) (human) (UniProt P08069); experiment: as above
# [7] = molecular target: rHuman CD44/Fc Chimera, CF (R&D Systems Cat#3660-CD) (human) (UniProt P16070); experiment: as above
# [8] = molecular target: rHuman P-Cadherin/Fc Chimera, CF (R&D Systems Cat#861-PC) (human) (UniProt P22223); experiment: as above
# [9] = molecular target: rHuman HGF R/c-MET/Fc Chimera, CF (R&D Systems Cat#358-MT/CF) (human) (UniProt P08581); experiment: as above
# [10] = molecular target: rHuman ErbB2/Fc Chimera, CF (R&D Systems Cat#1129-ER) (human) (UniProt P04626); experiment: as above
# [11] = molecular target: rHuman Notch-1/Fc Chimera, CF (R&D Systems Cat#3647-TK) (human) (UniProt P46531); experiment: Multispot ECL (MSD), antigen spotted on plate, Fab 4.375 nM; blank spot 305
# [12] = molecular target: rHuman IGF-1 sR, (IGF-1 sR), CF (R&D Systems Cat#391-GR) (human) (UniProt P08069); experiment: as above
# [13] = molecular target: rHuman CD44/Fc Chimera, CF (R&D Systems Cat#3660-CD) (human) (UniProt P16070); experiment: as above
# [14] = molecular target: rHuman P-Cadherin/Fc Chimera, CF (R&D Systems Cat#861-PC) (human) (UniProt P22223); experiment: as above
# [15] = molecular target: rHuman HGF R/c-MET/Fc Chimera, CF (R&D Systems Cat#358-MT/CF) (human) (UniProt P08581); experiment: as above
# [16] = molecular target: rHuman ErbB2/Fc Chimera, CF (R&D Systems Cat#1129-ER) (human) (UniProt P04626); experiment: as above
# [17] = molecular target: rHuman Notch-1/Fc Chimera, CF (R&D Systems Cat#3647-TK) (human) (UniProt P46531); experiment: Multispot ECL (MSD), antigen spotted on plate, Fab 17.5 nM; blank spot 304
# [18] = molecular target: rHuman IGF-1 sR, (IGF-1 sR), CF (R&D Systems Cat#391-GR) (human) (UniProt P08069); experiment: as above
# [19] = molecular target: rHuman CD44/Fc Chimera, CF (R&D Systems Cat#3660-CD) (human) (UniProt P16070); experiment: as above
# [20] = molecular target: rHuman P-Cadherin/Fc Chimera, CF (R&D Systems Cat#861-PC) (human) (UniProt P22223); experiment: as above
# [21] = molecular target: rHuman HGF R/c-MET/Fc Chimera, CF (R&D Systems Cat#358-MT/CF) (human) (UniProt P08581); experiment: as above
# [22] = molecular target: rHuman ErbB2/Fc Chimera, CF (R&D Systems Cat#1129-ER) (human) (UniProt P04626); experiment: as above
# [23] = molecular target: rHuman Notch-1/Fc Chimera, CF (R&D Systems Cat#3647-TK) (human) (UniProt P46531); experiment: Multispot ECL (MSD), antigen spotted on plate, Fab 280 nM; blank spot 1691
# [24] = molecular target: rHuman IGF-1 sR, (IGF-1 sR), CF (R&D Systems Cat#391-GR) (human) (UniProt P08069); experiment: as above
# [25] = molecular target: rHuman CD44/Fc Chimera, CF (R&D Systems Cat#3660-CD) (human) (UniProt P16070); experiment: as above
# [26] = molecular target: rHuman P-Cadherin/Fc Chimera, CF (R&D Systems Cat#861-PC) (human) (UniProt P22223); experiment: as above
# [27] = molecular target: rHuman HGF R/c-MET/Fc Chimera, CF (R&D Systems Cat#358-MT/CF) (human) (UniProt P08581); experiment: as above
# [28] = molecular target: rHuman ErbB2/Fc Chimera, CF (R&D Systems Cat#1129-ER) (human) (UniProt P04626); experiment: as above
# Chain of rHuman HGF R/c-MET/Fc Chimera, CF (R&D Systems Cat#358-MT/CF) (human) (P08581 25-932, change not shown): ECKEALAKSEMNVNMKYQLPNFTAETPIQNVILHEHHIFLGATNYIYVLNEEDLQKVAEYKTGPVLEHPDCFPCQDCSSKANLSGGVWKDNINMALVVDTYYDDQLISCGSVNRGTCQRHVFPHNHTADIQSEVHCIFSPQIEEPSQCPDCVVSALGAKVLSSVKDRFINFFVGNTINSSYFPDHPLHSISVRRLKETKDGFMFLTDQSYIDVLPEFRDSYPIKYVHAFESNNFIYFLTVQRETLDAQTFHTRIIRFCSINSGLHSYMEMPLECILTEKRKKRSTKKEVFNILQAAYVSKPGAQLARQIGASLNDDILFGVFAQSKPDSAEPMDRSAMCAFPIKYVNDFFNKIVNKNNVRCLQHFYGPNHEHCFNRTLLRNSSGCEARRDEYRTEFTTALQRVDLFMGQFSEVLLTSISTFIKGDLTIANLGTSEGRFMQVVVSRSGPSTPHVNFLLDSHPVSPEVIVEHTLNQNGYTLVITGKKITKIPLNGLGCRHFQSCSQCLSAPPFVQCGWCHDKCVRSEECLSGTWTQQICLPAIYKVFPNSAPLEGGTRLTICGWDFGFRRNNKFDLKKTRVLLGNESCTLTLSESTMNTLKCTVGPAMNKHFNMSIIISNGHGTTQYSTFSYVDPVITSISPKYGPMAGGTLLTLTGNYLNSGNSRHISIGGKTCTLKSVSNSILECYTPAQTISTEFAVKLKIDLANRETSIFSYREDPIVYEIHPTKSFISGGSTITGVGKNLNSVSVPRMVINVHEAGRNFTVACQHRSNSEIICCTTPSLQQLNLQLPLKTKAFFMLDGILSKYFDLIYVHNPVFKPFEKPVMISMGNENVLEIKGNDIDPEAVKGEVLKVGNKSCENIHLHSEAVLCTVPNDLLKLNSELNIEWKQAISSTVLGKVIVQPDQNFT
substance,measurement,setting,value
Fab VH1-46_IGHD3-10*01_IGHJ4*01 & L12_IGKJ1*01,ECL signal,[1],2670
same,ECL signal,[2],5720
same,ECL signal,[3],13400
same,ECL signal,[4],3860
Fab VH1-46_IGHD2-15*01_IGHJ2*01 & L12_IGKJ1*01,ECL signal,[5],1490
same,ECL signal,[6],1320
same,ECL signal,[7],1370
same,ECL signal,[8],1820
same,ECL signal,[9],1290
same,ECL signal,[10],1360
same,ECL signal,[11],480
same,ECL signal,[12],369
same,ECL signal,[13],424
same,ECL signal,[14],469
same,ECL signal,[15],193
same,ECL signal,[16],384
same,ECL signal,[17],680
same,ECL signal,[18],626
same,ECL signal,[19],664
same,ECL signal,[20],949
same,ECL signal,[21],565
same,ECL signal,[22],541
same,ECL signal,[23],4380
same,ECL signal,[24],3530
same,ECL signal,[25],4070
same,ECL signal,[26],5400
same,ECL signal,[27],3560
same,ECL signal,[28],3950
